{
  "source": "patent US8460669B2",
  "about": "“Compositions and methods for identifying response targets and treating flavivirus infection responses” (Academia Sinica, priority 2005, dated 2013)",
  "molecules": {"B1": {"name": "Fc.MDL-1: extracellular domain of human DVLR1/CLEC5A (MDL-1) fused to the Fc portion of human IgG1 (protein)", "chain": "MNWHMIISGLIVVVLKVVGMTLFLLYFPQIFNKSNDGFTTTRSYGTVSQIFGSSSPSPNGFITTRSYGTVCPKDWEFYQARCFFLSTSESSWNESRDFCKGKGSTLAIVNTPEKLFLQDITDAEKYFIGLIYHREEKRWRWINNSVFNGNVTNQNQNFNCATIGLTKTFDAASCDISYRRICEKNAK"}},
  "key": {"[1]": {"experiment": "Enzyme linked immunoassay of receptor.Fc fusions on immobilized GLPS-F3", "type": "binding, Ganoderma lucidum", "settings": "GLPS-F3 100 ng/well; receptor.Fc 1 μg/ml", "method": "The interactions of polysaccharides with receptor.Fc fusion proteins was further investigated by performing an enzyme-linked immunoassay, which was based on immobilizing GLPS-F3 through both hydrophilic and hydrophobic forces onto microtiter plates (polysytrene). In this format, the number of different receptor.Fc fusions for profiling was increased in comparison to Example 7. To optimize the quantity of GLPS-F3 for immobilization, various amounts (3-1000 ng/well, diluted in 100 mM Tris buffer, pH9.5) of biotinylated-GLPS-F3 (Biotin-GLPS-F3) were coated onto MaxiSorp StarWell microtiter plates (50 μL/well; Nunc). The plates were incubated overnight at 4° C., and then the wells were washed twice with TBST, followed by blocking with 200 μL blocking buffer (2% BSA/TBST) for 1 hour at room temperature. Peroxidase-conjugated avidin (1:5000 dilution, Vector Laboratories) and TMB (tetramethylbenzidine) substrate was then used for detection of immobilized biotinylated GLPS-F3.\nThe interaction between GLPS-F3 and receptor.Fc was then tested. […] Wells were incubated with 100 μL TMB substrate for 15 min after TBST washing and read at 450 nm in a Fusion plate reader (Perkin Elmer). […]"}, "[2]": {"tested_on": "JEV", "experiment": "ELISA of DVLR1/CLEC5A.Fc interaction with JEV", "type": "binding, Japanese encephamyelitis virus", "settings": "1 μg; JEV 5×10^6 PFU", "method": "Like with DV, JEV follows a similar virus infection response pattern, which is believed to be the same or similar in all flaviviruses. […] (1 μg), with JEV and DV (5×10^6 PFU), respectively, were determined by ELISA. DV interacts with human DVLR1/CLEC5A (187 amino acid in length) SEQ ID NO: 72, but not the alternatively spliced form sDVLR1/CLEC5A (aa 43-65 is deleted). SEQ ID NO: 73. […] DAP12 in DV-infected macrophages were precipitated by anti-DAP12 mAb, blotted to nitrocellulose paper after fractionation on SDS-PAGE, followed by incubation with antibodies against phosphotyrosine and DAP12, respectively. JEV-induced DAP12 phosphorylation (m.o.i.=5) is inhibited by pLL3.7/DVLR1/CLEC5A. […] JEV-induced TNF-α secretion is inhibited by […] mAb (right). Data are expressed as the mean±s.d. of three independent experiments."}, "[3]": {"tested_on": "Dengue virus", "experiment": "Immunoprecipitation of Dengue virus with receptor.Fc", "type": "binding", "settings": "receptor.Fc 5 μg; DV 5×10^6; listed as DVLR1/CLEC5A.Fc", "method": "The results are depicted in FIG. 8A (** indicates p<0.01, *** indicates p<0.001 (Student's t test)). […] Specifically, 5×10^6 Dengue virus particles were incubated with 5 μg of each protein, and then Protein A beads were added. The resulting immunocomplexes were washed, separated by SDS-PAGE, and transferred onto nitrocellulose membrane. The membrane was then probed with biotinylated anti-DEN2 envelope protein antibody and developed with horseradish peroxidase-conjugated streptavidin.\nIn FIG. 16b, complexes of DV (5×10^6 PFU) with receptor.Fc (5 μg) were immunoprecipitated and detected on westerns with mAb to DV envelope (E) protein. […] FIGS. 16d and 16e show sugar competition assays wherein both DC-SIGN (CLEC4L) and DVLR1/CLEC5A increase DV binding to human 293T cells (FIG. 16d), while addition of sugars inhibits biotinylated DV binding to DC-SIGN- (left panel) or DLVR1/CLEC5A- (right panel) transfected 293T cells in a dose-dependent manner as determined by flow cytometry (FIG. 16e). According to FIG. 16e, MFI represents mean fluorescence intensity. Units (U) for monosaccharide (mannose and fucose) and polysaccharide (mannan) are mM and mg/ml, respectively. […] Data are expressed as the mean±s.d. of three independent experiments. Two-tailed, Student's t-tests were performed. […]"}, "[4]": {"tested_on": "Dengue virus", "experiment": "ELISA of receptor.Fc interaction with Dengue virus", "type": "binding", "settings": "for binding to DV pretreated with heat or dithiothreitol: 95° C. 5 min or DTT 0.1 M; for binding to DV pretreated with PNGaseF: PNGaseF 500 U; for interaction of receptor.Fc with Dengue virus (ELISA): receptor.Fc 1 μg, DV 5×10^6", "method": "One μg of each receptor.Fc fusion protein was coated onto microtiter plates overnight at 4° C. DV (5×10^6 particles) of strain 16681 (a DEN2 strain) in binding buffer (1% BSA, 2 mM CaCl2, 2 mM MgCl2, 50 mM Tris-HCl pH 7.5, 150 mM NaCl) was then added to the plates and the plates were incubated for 2 hours. After washing non-bound virus, a biotinylated anti-DEN2 envelope protein antibody (Wu et al., J Virol, 2002. 76(8): p. 3596-604) was applied to bind to the virus for 1 hour. Diluted horseradish peroxidase-conjugated streptavidin was then added to the plates, followed by a 1 hour incubation. TMB substrate was then added and the plates were read using an ELISA reader at OD450 nm.\nThe microtiter plate assay was repeated in the presence of EDTA (10 mM) to chelate Ca^++ cations.\nThe microtiter plate assay was also repeated for DVLR1/CLEC5A.Fc fusion protein with DV particles (5×10^6) that had been 1) preincubated with 500 U of the glycosidase PNGaseF (New England Biolabs, Inc.) overnight at 37° C.; or 2) treated with dithiothreitol (DTTI) (0.1M); or 3) incubated at 95° C. for 5 minutes; or 4) UV irradiated for 5 minutes. The results are shown in FIG. 8D (asterisks indicate where the binding affinity of DVLR1/CLEC5A.Fc fusion protein is altered by modification of the virus relative to non-treated virus; ** p<0.01, *** p<0.001, Student's t test). […]"}},
  "note": "Entries after “also recorded” stand apart in the source; their conditions may differ.",
  "data": [
    {"molecule": "B1", "values": [
      {"measurement": "binding ability to GLPS-F3", "setting": "[1]", "value": "minimal binding ability"},
      {"measurement": "interaction with JEV (ELISA)", "setting": "[2]", "value": "not"},
      {"measurement": "immunoprecipitation of Dengue virus (E protein detected)", "setting": "[3]", "value": "able to immunoprecipitate DV; also recorded: detected"},
      {"measurement": "binding to DV pretreated with heat or dithiothreitol", "setting": "[4]", "value": "abolish"},
      {"measurement": "binding to DV pretreated with heat or dithiothreitol", "setting": "[4]; listed as DVLR1/CLEC5A.Fc", "value": "almost completely inhibited"},
      {"measurement": "Ca^++ dependence of binding to Dengue virus", "setting": "[4]; EDTA 10 mM", "value": "Ca^++ independent; also recorded: no effect"},
      {"measurement": "binding to DV pretreated with PNGaseF", "setting": "[4]", "value": "substantially reduced"},
      {"measurement": "binding to DV pretreated with PNGaseF", "setting": "[4]; listed as DVLR1/CLEC5A.Fc", "value": "inhibited DVLR1/CLEC5A.Fc interaction significantly"},
      {"measurement": "interaction of receptor.Fc with Dengue virus (ELISA)", "setting": "[4]", "value": "binds; also recorded: interacts"},
      {"measurement": "interaction of receptor.Fc with Dengue virus (ELISA)", "setting": "[4]; listed as DVLR1/CLEC5A.Fc", "value": "able to capture DV2"}
    ]}
  ]
}
